Assay results as given in the supplement of paper PMC10567573.

B1: SPATS1 (parent)
chain: YPEQSKGFHKAGSMLPPVNFSIVP

Variants of: B1
Assay: protein stability index of a GFP-peptide fusion (GPS, HEK-293T) (PSI 1-6); higher = more stable
Conditions: c terminus: a fixed tail appended
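Also: lentivirally expressed fusions sorted by FACS into six bins by GFP to DsRed ratio, PSI derived from sequencing read proportions per bin multiplied by bin number.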

Q: For YPEQSKGFHKAGSMLPPVNASIVP [F20A], which protein stability index is on record?
A: 2.26

Q: With YPEQSKGFHKAGSMLPPVNESIVP [F20E] as the variant, how does the protein stability index read?
A: 2.13

Q: Which protein stability index does the source give for YPEQSKGFHKAGSMLPPVNGSIVP [F20G] here?
A: 1.71

Q: With YPEQSKGFHKAGSMLPPVNCSIVP [F20C] as the variant, how does the protein stability index read?
A: 2.13

Q: Which protein stability index does the source give for YPEQSKGFHKAGSMLPPVNDSIVP [F20D] here?
A: 2.39

Q: With YPEQSKGFHKAGSMLPMVNFSIVP [P17M] as the variant, how does the protein stability index read?
A: 1.42

Q: With YPEQSKGFHKAGSMLPQVNFSIVP [P17Q] as the variant, how does the protein stability index read?
A: 1.76

Q: Which protein stability index does the source give for YPEQSKGFHKAGSMLPEVNFSIVP [P17E] here?
A: 1.85

Q: Which protein stability index does the source give for YPEQSKGFHKAGSMLPDVNFSIVP [P17D] here?
A: 1.94

Q: Which protein stability index does the source give for YPEQSKGFHKAGSMLPSVNFSIVP [P17S] here?
A: 1.94

Q: With YPEQSKGFHKAGSMLPIVNFSIVP [P17I] as the variant, how does the protein stability index read?
A: 1.75

Q: Which protein stability index does the source give for YPEQSKGFHKAGSMLPGVNFSIVP [P17G] here?
A: 1.83

Q: With YPEQSKGFHKAGSMLPTVNFSIVP [P17T] as the variant, how does the protein stability index read?
A: 1.59

Q: With YPEQSKGFHKAGSMLPFVNFSIVP [P17F] as the variant, how does the protein stability index read?
A: 1.58

Q: Which protein stability index does the source give for YPEQSKGFHKAGSMLPCVNFSIVP [P17C] here?
A: 1.41

Q: For YPEQSKGFHKAGSMLPAVNFSIVP [P17A], which protein stability index is on record?
A: 2.63

Q: For YPEQSKGFHKAGSMLPHVNFSIVP [P17H], which protein stability index is on record?
A: 2.75

Q: With YPEQSKGFHKAGSMLPRVNFSIVP [P17R] as the variant, how does the protein stability index read?
A: 1.61

Q: With YPEQSKGFHKAGSMLPNVNFSIVP [P17N] as the variant, how does the protein stability index read?
A: 1.9

Q: With YPEQSKGFHKAGSMLPLVNFSIVP [P17L] as the variant, how does the protein stability index read?
A: 1.62

Q: For YPEQSKGFHKAGSMLPKVNFSIVP [P17K], which protein stability index is on record?
A: 1.59

Q: For YPEQSKGFHKAGSMLPWVNFSIVP [P17W], which protein stability index is on record?
A: 2.59

Q: Which protein stability index does the source give for YPEQSKGFHKAGSMLPYVNFSIVP [P17Y] here?
A: 1.8

Q: With YPEQSKGFHKAGSMLPVVNFSIVP [P17V] as the variant, how does the protein stability index read?
A: 2.22

Q: Which protein stability index does the source give for YPEQSKGFHKAGSMLPPLNFSIVP [V18L] here?
A: 1.28

Q: With YPEQSKGFHKAGSMLPPYNFSIVP [V18Y] as the variant, how does the protein stability index read?
A: 1.91

Q: For YPEQSKGFHKAGSMLPPINFSIVP [V18I], which protein stability index is on record?
A: 1.84

Q: For YPEQSKGFHKAGSMLPPWNFSIVP [V18W], which protein stability index is on record?
A: 1.76

Q: With YPEQSKGFHKAGSMLPPRNFSIVP [V18R] as the variant, how does the protein stability index read?
A: 1.62

Q: Which protein stability index does the source give for YPEQSKGFHKAGSMLPPDNFSIVP [V18D] here?
A: 2.26

Q: For YPEQSKGFHKAGSMLPPKNFSIVP [V18K], which protein stability index is on record?
A: 2.06

Q: Which protein stability index does the source give for YPEQSKGFHKAGSMLPPMNFSIVP [V18M] here?
A: 2.02

Q: For YPEQSKGFHKAGSMLPPENFSIVP [V18E], which protein stability index is on record?
A: 1.81

Q: With YPEQSKGFHKAGSMLPPNNFSIVP [V18N] as the variant, how does the protein stability index read?
A: 2.4

Q: Which protein stability index does the source give for YPEQSKGFHKAGSMLPPTNFSIVP [V18T] here?
A: 2

Q: For YPEQSKGFHKAGSMLPPHNFSIVP [V18H], which protein stability index is on record?
A: 1.95

Q: For YPEQSKGFHKAGSMLPPCNFSIVP [V18C], which protein stability index is on record?
A: 2.2

Q: Which protein stability index does the source give for YPEQSKGFHKAGSMLPPSNFSIVP [V18S] here?
A: 1.96

Q: Which protein stability index does the source give for YPEQSKGFHKAGSMLPPPNFSIVP [V18P] here?
A: 2.19

Q: Which protein stability index does the source give for YPEQSKGFHKAGSMLPPFNFSIVP [V18F] here?
A: 1.73

Q: Which protein stability index does the source give for YPEQSKGFHKAGSMLPPQNFSIVP [V18Q] here?
A: 2.2

Q: For YPEQSKGFHKAGSMLPPGNFSIVP [V18G], which protein stability index is on record?
A: 2.48

Q: Which protein stability index does the source give for YPEQSKGFHKAGSMLPPANFSIVP [V18A] here?
A: 2.56

Q: With YPEQSKGFHKAGSMSPPVNFSIVP [L15S] as the variant, how does the protein stability index read?
A: 2.04

Q: For YPEQSKGFHKAGSMKPPVNFSIVP [L15K], which protein stability index is on record?
A: 1.72

Q: Which protein stability index does the source give for YPEQSKGFHKAGSMPPPVNFSIVP [L15P] here?
A: 2.42

Q: Which protein stability index does the source give for YPEQSKGFHKAGSMHPPVNFSIVP [L15H] here?
A: 2.27

Q: For YPEQSKGFHKAGSMQPPVNFSIVP [L15Q], which protein stability index is on record?
A: 2.47

Q: For YPEQSKGFHKAGSMYPPVNFSIVP [L15Y], which protein stability index is on record?
A: 2.42

Q: For YPEQSKGFHKAGSMVPPVNFSIVP [L15V], which protein stability index is on record?
A: 1.85

Q: With YPEQSKGFHKAGSMIPPVNFSIVP [L15I] as the variant, how does the protein stability index read?
A: 1.84

Q: Which protein stability index does the source give for YPEQSKGFHKAGSMNPPVNFSIVP [L15N] here?
A: 2.02

Q: For YPEQSKGFHKAGSMMPPVNFSIVP [L15M], which protein stability index is on record?
A: 1.8

Q: With YPEQSKGFHKAGSMTPPVNFSIVP [L15T] as the variant, how does the protein stability index read?
A: 2.16

Q: Which protein stability index does the source give for YPEQSKGFHKAGSMRPPVNFSIVP [L15R] here?
A: 1.9

Q: With YPEQSKGFHKAGSMWPPVNFSIVP [L15W] as the variant, how does the protein stability index read?
A: 1.47

Q: Which protein stability index does the source give for YPEQSKGFHKAGSMLWPVNFSIVP [P16W] here?
A: 1.96

Q: Which protein stability index does the source give for YPEQSKGFHKAGSMLMPVNFSIVP [P16M] here?
A: 1.52

Q: Which protein stability index does the source give for YPEQSKGFHKAGSMLEPVNFSIVP [P16E] here?
A: 1.95

Q: With YPEQSKGFHKAGSMLCPVNFSIVP [P16C] as the variant, how does the protein stability index read?
A: 1.97

Q: Which protein stability index does the source give for YPEQSKGFHKAGSMLQPVNFSIVP [P16Q] here?
A: 2.02

Q: With YPEQSKGFHKAGSMLTPVNFSIVP [P16T] as the variant, how does the protein stability index read?
A: 1.9

Q: Which protein stability index does the source give for YPEQSKGFHKAGSMLYPVNFSIVP [P16Y] here?
A: 1.78

Q: For YPEQSKGFHKAGSMLDPVNFSIVP [P16D], which protein stability index is on record?
A: 1.94

Q: With YPEQSKGFHKAGSMLIPVNFSIVP [P16I] as the variant, how does the protein stability index read?
A: 1.54

Q: For YPEQSKGFHKAGSMLAPVNFSIVP [P16A], which protein stability index is on record?
A: 1.95

Q: For YPEQSKGFHKAGSMLGPVNFSIVP [P16G], which protein stability index is on record?
A: 1.65

Q: With YPEQSKGFHKAGSMLLPVNFSIVP [P16L] as the variant, how does the protein stability index read?
A: 1.76

Q: Which protein stability index does the source give for YPEQSKGFHKAGSMLSPVNFSIVP [P16S] here?
A: 1.43

Q: With YPEQSKGFHKAGSMLRPVNFSIVP [P16R] as the variant, how does the protein stability index read?
A: 1.99

Q: With YPEQSKGFHKAGSMLKPVNFSIVP [P16K] as the variant, how does the protein stability index read?
A: 2.01

Q: For YPEQSKGFHKAGSMLNPVNFSIVP [P16N], which protein stability index is on record?
A: 1.65

Q: With YPEQSKGFHKAGSMLHPVNFSIVP [P16H] as the variant, how does the protein stability index read?
A: 1.44

Q: With YPEQSKGFHKAGSMLVPVNFSIVP [P16V] as the variant, how does the protein stability index read?
A: 2.16

Q: For YPEQSKGFHKAGSMLFPVNFSIVP [P16F], which protein stability index is on record?
A: 1.98

Q: For YPEQSKGFHKAGSMLPPVMFSIVP [N19M], which protein stability index is on record?
A: 1.75

Q: Which protein stability index does the source give for YPEQSKGFHKAGSMLPPVHFSIVP [N19H] here?
A: 1.91

Q: Which protein stability index does the source give for YPEQSKGFHKAGSMLPPVKFSIVP [N19K] here?
A: 1.82

Q: Which protein stability index does the source give for YPEQSKGFHKAGSMLPPVSFSIVP [N19S] here?
A: 2.43

Q: For YPEQSKGFHKAGSMLPPVYFSIVP [N19Y], which protein stability index is on record?
A: 2.26

Q: Which protein stability index does the source give for YPEQSKGFHKAGSMLPPVTFSIVP [N19T] here?
A: 1.75

Q: Which protein stability index does the source give for YPEQSKGFHKAGSMLPPVIFSIVP [N19I] here?
A: 2.41

Q: For YPEQSKGFHKAGSMLPPVRFSIVP [N19R], which protein stability index is on record?
A: 1.85

Q: With YPEQSKGFHKAGSMLPPVWFSIVP [N19W] as the variant, how does the protein stability index read?
A: 2.18

Q: With YPEQSKGFHKAGSMLPPVQFSIVP [N19Q] as the variant, how does the protein stability index read?
A: 1.87

Q: With YPEQSKGFHKAGSMLPPVAFSIVP [N19A] as the variant, how does the protein stability index read?
A: 2.17

Q: Which protein stability index does the source give for YPEQSKGFHKAGSMLPPVEFSIVP [N19E] here?
A: 1.91

Q: Which protein stability index does the source give for YPEQSKGFHKAGSMLPPVDFSIVP [N19D] here?
A: 1.97

Q: For YPEQSKGFHKAGSMLPPVGFSIVP [N19G], which protein stability index is on record?
A: 1.74

Q: For YPEQSKGFHKAGSMLPPVFFSIVP [N19F], which protein stability index is on record?
A: 2.48

Q: With YPEQSKGFHKAGSMLPPVCFSIVP [N19C] as the variant, how does the protein stability index read?
A: 1.56

Q: Which protein stability index does the source give for YPEQSKGFHKAGSMLPPVVFSIVP [N19V] here?
A: 2.07

Q: With YPEQSKGFHKAGSMLPPVPFSIVP [N19P] as the variant, how does the protein stability index read?
A: 1.88

Q: For YPEQSKGFHKAGSMLPPVLFSIVP [N19L], which protein stability index is on record?
A: 2.24
